Target: Porcine skeletal actin, pyrene-labeled (porcine) (UniProt P68137)
Assay: stopped-flow fluorescence

kon: 0.35 M⁻¹ s⁻¹
Substance: Cardiac myosin from porcine left ventricular tissue (from UniProt P79293 1-1935) (complex)
